# Laboratory results: patent EP4600270A1 (ImnoTech GmbH, dated 2025)
# Changes are numbered by the printed parent chain.
# T1: human CD7 (cluster of differentiation 7) (human, UniProt P09564 26-240)
# T1 construct: also called CD7 target antigen; CD7 surface marker
# T1 sequence: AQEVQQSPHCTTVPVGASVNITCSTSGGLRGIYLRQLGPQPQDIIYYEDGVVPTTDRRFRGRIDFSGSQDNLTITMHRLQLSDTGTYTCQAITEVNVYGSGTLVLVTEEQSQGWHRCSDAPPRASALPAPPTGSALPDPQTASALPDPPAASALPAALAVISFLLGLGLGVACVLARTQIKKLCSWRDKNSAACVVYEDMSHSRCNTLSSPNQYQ
# B1: SEQ ID NO 2 (VHH)
# VHH: QVQLQESGGGLVQAGGSLRLSCAASGRTFSDYLMGWFRQTPGKEREFVAAIYWNAGSTYYADSVKGRFTISRDNTKNTMYLQMNSLKPEDTAVYYCAAGQRGLAYARTYDYDYWGQGTQVTVSS
# notes: Single domain antibody against human CD7; also called anti-CD7 sdAb
# B2: SEQ ID NO 4 (VHH)
# VHH: QVQLQESGGGLVQAGDSLRLSCAASGLTVSSYGMGWFRQAPGKEREFVVDISRGGGSTSYADSVKGRFTIARDNAKNTLYLQMNSLKPEDTAVYSCAARKYAHYEYWGQGTQVTVSS
# notes: as for B1
# B3: SEQ ID NO 7 (VHH)
# VHH: B2 VHH with S31M, V49A, A61T, A71S, W107R
# notes: as for B1
# B4: SEQ ID NO 8 (VHH)
# VHH: B2 VHH with A14T, V49A, S59L, A71S, A75L, H103E, Y104W, E105N
# notes: as for B1
# B5: SEQ ID NO 9 (VHH)
# VHH: B2 VHH with V49A, S59L, A71S, A75G, M83I, H103E, Y104W, E105D
# notes: as for B1
# B6: SEQ ID NO 13 (VHH)
# VHH: QVQLQESGGGLVQSGGSLRLSCAASRRIFEINVMGWYRQAPEKQRELVGTITSFGGTNYADSVKGRFTISADYAKNTMYLQMNSLNPEDTAVYYCNAHYFSNDYWGQGTQVTVSS
# notes: as for B1
# Target: T1, human CD7 (cluster of differentiation 7)
# Assay: flow cytometry titration on human CD8+ T cells, one-site specific binding fit
row,Binder,Kd [nM]
1,B1,6.34
2,B2,5.66
3,B3,11
4,B4,8.16
5,B5,4.04
6,B6,3.9
